Experimental findings from patent US20210363269A1 (ALX ONCOLOGY, published 2021) are described below.

For assay [1], the target named is T1, mouse 129 SIRP-α D1 domain (mouse (129 strain), UniProt P97797 32-150).
T1 construct: also called m129
T1 chain: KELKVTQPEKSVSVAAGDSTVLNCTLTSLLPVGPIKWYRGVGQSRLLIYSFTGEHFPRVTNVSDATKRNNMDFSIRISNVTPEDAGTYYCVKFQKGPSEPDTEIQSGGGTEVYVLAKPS
Kind of assay: SPR. The procedure, abridged:
(§1)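 Pre-filtered culture media supplied the scFv-Fc antibody clones, which were captured by anti-human IgG Fc amine-coupled (about 4000 RU) to a GLC chip on a ProteOn XPR36. SIRP analytes were flowed in PBS pH 7.4 with 0.01% Tween-20 at 25° C. Interspot and buffer-blank responses were subtracted from the data, which were then fitted to a 1:1 Langmuir model. Dissociation rate constants (koff) were derived from this fitting.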

The target of assay [2] is T2, C57BL/6 mouse SIRP-α D1 domain (mouse (C57BL/6 strain), UniProt P97797 32-148).
T2 sequence: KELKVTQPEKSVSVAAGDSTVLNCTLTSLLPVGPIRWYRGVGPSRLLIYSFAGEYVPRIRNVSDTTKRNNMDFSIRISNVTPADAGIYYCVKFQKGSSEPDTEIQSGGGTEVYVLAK
Briefly: SPR. The procedure, abridged: as §1
On the technique in general: SPR reads the build-up and loss of mass on a sensor chip optically.

Assay [3] has as its target T3, cynomolgus SIRP-α D1 domain (cyno2) (cynomolgus monkey, UniProt Q5TFQ8 30-148 (human entry), limits assumed).
T3 chain: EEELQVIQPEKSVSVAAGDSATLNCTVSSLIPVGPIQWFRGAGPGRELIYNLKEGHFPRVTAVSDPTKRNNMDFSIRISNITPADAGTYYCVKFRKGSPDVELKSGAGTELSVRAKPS
Briefly: SPR, Langmuir fit. In outline:
as §1

Assay [4] has as its target T4, human SIRP-α v2 D1 domain (human).
T4 construct: also called human v2
Briefly: SPR, Langmuir fit. In outline:
as §1

The target of assay [5] is T5, human SIRP-α v1 D1 domain (human, UniProt P78324 31-149).
T5 construct: also called human v1
Kind of assay: SPR, Langmuir fit. The procedure, abridged: as §1

In a further assay the target is T6, human SIRPγ isoform 1 (human, UniProt Q9P1W8 29-147).
T6 construct: also called SIRPg; sirpg
T6 sequence (Q9P1W8 29-147 limits assumed): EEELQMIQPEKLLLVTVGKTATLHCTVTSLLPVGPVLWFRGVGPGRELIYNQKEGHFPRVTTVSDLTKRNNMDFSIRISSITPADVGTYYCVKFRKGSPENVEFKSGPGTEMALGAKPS
Briefly: SPR, Langmuir fit. The procedure, abridged: as §1

For the next assay, the target named is T7, human SIRPβ isoform 1 (human, UniProt O00241 30-148).
T7 construct: also called SIRPb; sirpb1
T7 sequence (O00241 30-148 limits assumed): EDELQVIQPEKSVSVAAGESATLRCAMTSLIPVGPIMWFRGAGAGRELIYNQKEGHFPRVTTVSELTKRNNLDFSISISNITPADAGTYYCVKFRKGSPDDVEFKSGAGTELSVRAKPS
Kind of assay: SPR, Langmuir fit. The procedure, abridged: as §1

Assay [6] concerns the target T8, high affinity SIRP-α D1 variant CV1-3.
T8 chain: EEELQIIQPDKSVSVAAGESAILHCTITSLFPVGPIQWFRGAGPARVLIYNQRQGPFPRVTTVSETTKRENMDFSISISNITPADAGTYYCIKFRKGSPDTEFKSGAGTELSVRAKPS
Kind of assay: SPR, Langmuir fit. In outline: as §1

Assay [7] addresses T9, human SIRP-α v2 D1 domain (human).
T9 construct: also called human v2; human α v2
Kind of assay: SPR, antibody immobilised on GLC chip. As to the method:
(§2) All experiments were performed at 25° C. using a SPR-based ProteOn XPR36 biosensor (BioRad, Inc, Hercules, Calif.) equipped with GLC or NLC sensor chips. […] Purification was carried out by standard Protein A affinity column chromatography and eluted antibodies were stored in PBS buffer.
(§3) For the method using GLC chip, the analytes were injected and flowed over anti-SIRPα antibodies immobilized (˜1000 RUs) on GLC chips using Proteon™ Amine Coupling Kit. For the immobilization step, GLC chip was activated with EDAC/Sulpho-NHS 1:1 (Biorad) diluted 1/100 for 300 s at 25 μL/min. Anti-SIRPα antibodies were diluted to 80 nM concentration in 10 mM sodium acetate buffer pH 4.5 and immobilized to the chip at 30 μL/min for 50 s. Chip was inactivated with ethanolamine for 300 s at 25 μL/min. The analytes (e.g., SIRP-α from different species, SIRP-β, SIRP-γ) were injected in a “one-shot” kinetic mode at nominal concentrations of 100, 33, 11, 3.7, 1.2 and 0 nM. Association times were monitored for 90 s at 100 μL/min, and dissociation times were monitored for 1200 s. The surfaces were regenerated with a 2:1 v/v blend of Pierce IgG elution buffer/4M NaCl.

Assay [8] addresses T10, human SIRP-α v1 D1 domain (human, UniProt P78324 31-149).
T10 construct: also called human v1; human α v1
Kind of assay: SPR, antibody immobilised on GLC chip. On the procedure:
as §2, §3

The target in assay [9] is T11, cynomolgus SIRP-α D1 domain (SEQ ID NO:11) (cynomolgus, UniProt Q5TFQ8 30-148 (human entry), limits assumed).
T11 construct: also called cyno1
T11 chain: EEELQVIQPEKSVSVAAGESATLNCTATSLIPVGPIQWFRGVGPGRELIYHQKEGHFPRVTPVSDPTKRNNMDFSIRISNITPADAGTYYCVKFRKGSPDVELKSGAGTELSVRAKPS
Kind of assay: SPR, antibody immobilised on GLC chip. As to the method:
as §2, §3

B1: S163 (scFv, V domains shown)
VH: DVQLVESGGGLVRPGESLRLSCAASGFTFTNYAVTWVRQAPGEGLEWVSLISVTGTTYYADSVKGRFTISRDNSKSTLYLQMNGLRAEDTAVYYCAKVTWKNVFDYWGLGTLVTVSS
VL: EIVLTQSPGTLSVSPGERATFSCRASQTVGSKLAWYQQKPGQAPRLLIYDANTRATGIPARFSGSGSGTEFTLTISSLQSEDFAVYYCQQHTDWPPYTFGGGTKVEIK
For B1, the binding result in assay [1] and in assay [2] was “no binding (tested: Koff > 5 × 10^3 (legend))” throughout. In addition, the koff (commonly a measure of how fast the partners let go of each other) was determined as 0.000242 s⁻¹ in [3]; 0.00664 s⁻¹ in assay [4]; 0.000535 s⁻¹ in [5]; 0.00315 s⁻¹ in the assay with human SIRPγ isoform 1; 0.0017 s⁻¹ in the assay with human SIRPβ isoform 1; 0.00174 s⁻¹ in [6].

B2: S164 (scFv, V domains shown)
VH: DVQLVESGGGLVRPGESLRLSCAASGFTFTNYAVTWVRQAPGEGLEWVSLISVTGTTYYADSVKGRFTISRDNSKSTLYLQMNGLRAEDTAVYYCAKVTWKNVFDYWGLGTLVTVSS
VL: EIVLTQSPGTLSVSPGERATFSCRASQTVGSKLAWYQQKPGQAPRLLIYDANTRATGIPARFSGSRSGTEFTLTISSLQSEDFAVYYCQQHTDWPPYTFGGGTKVEIK
Take B2: the binding result in assay [1] and in assay [2] was “no binding (tested: Koff > 5 × 10^3 (legend))” throughout. The koff in assay [3] worked out at 0.000408 s⁻¹; in assay [4], 0.00989 s⁻¹; in [5] it was 0.000595 s⁻¹; with human SIRPγ isoform 1, 0.00426 s⁻¹; with human SIRPβ isoform 1, 0.00167 s⁻¹; in assay [6] it was 0.00134 s⁻¹.

B3: S162 (scFv, V domains shown)
VH: DVQLVESGGGLVRPGESLRLSCAASGFTFTNYAVTWVRQAPGEGLEWVSLISVTGTTYYADSVKGRFTISRDNSKSTLYLQMNSLRAEDTAVYYCAKVTWKNVFDYWGLGTLVTVSS
VL: EIVLTQSPGTLSVSPGERATFSCRASQTVGSKLAWYQQKPGQAPRLLIYDANTRATGIPARFSGSGSGTEFTLTISSLQSEDFAVYYCQQHTDWPPYTFGGGTKVEIK
As to B3, the binding result in assay [1] and in assay [2] was “no binding (tested: Koff > 5 × 10^3 (legend))” throughout. The koff in [3] worked out at 0.000318 s⁻¹; in assay [6], 0.00152 s⁻¹.

B4: antibody 119 variant mut/wt (VL mut all / VH wt) (antibody, human IgG1, V domains shown)
VH: DVQLLESGGGVVQPGGSLRLSCAASGFSFSNFAMTWVRQAPGEGLEWVSTIGSGDTYYADSVKGRFTISRDNSKNTLYLQMNSLRAEDTAVYYCAKDSTVSWSGDFFDYWGLGTLVTVSS
VL: EIVLTQSPATLSVSPGERATLSCRASQNVKNDLAWYQQKPGQAPRLLIYAARIRETGIPARFSGSGSGTEFTLTISSLQSEDFAVYYCQQYYDWPPFTFGGGTKVEIK
notes: Human IgG1 with L234A/L235A/G237A/N297A; Labels are in the order VL/VH
On to B4, for which the dissociation constant (Kd) (commonly the constant that tells how readily two partners part at equilibrium) in assay [7] was found to be 0.0864 nM; in [8], 0.214 nM; in assay [9], 0.138 nM.

B5: antibody 135 variant wt/mut V34M (antibody, human IgG1, V domains shown)
VH: EVQLVESGGGVVQPGGSLRLSCAASGFSFSIYAMSWVRQAPGKGLEWVSTIGADDTYYADSVKGRFTISRDNSKNTLYLQMNSLRAEDTAVYYCAKDSTVGWSGDFFDYWGQGTLVTVSS
VL: EIVLTQSPATLSVSPGERVTFSCRASQNVRSDIAWYQQKPGQAPRLLIYAASSRDTGIPDRFSGSGSGTDFTLTISSLQSEDFGVYYCQQYYDWPPFTFGGGTKVEIK
notes: as for B4
As for B5, the Kd in assay [7] turned out to be 0.0161 nM; in assay [8] it was 0.15 nM; in assay [9], 0.0794 nM.

B6: AB119 Wt/wt with hIgG4 (antibody, V domains shown)
VH: DVQLLESGGGVVQPGGSLRLSCAASGFSFSNFAMTWVRQAPGEGLEWVSTIGSGDTYYADSVKGRFTISRDNSKNTLYLQMNSLRAEDTAVYYCAKDSTVSWSGDFFDYWGLGTLVTVSS
VL: EIVLTQSPATLSVSPGERATFSCRASQNVKNDLAWYQQRPGQAPRLLIYAARIRETGIPERFSGSGSGTEFTLTITSLQSEDFAVYYCQQYYDWPPFTFGGGTKVEIK
notes: Human IgG4 Fc region with S228P (EU numbering); only variable domains tied to the clone
For B6, the Kd in [7] stood at 0.0598 nM; in assay [8], 0.174 nM; in assay [9], 0.116 nM.

B7: antibody 119 variant Mut/mut_V34M (antibody, human IgG1, V domains shown)
VH: EVQLLESGGGVVQPGGSLRLSCAASGFSFSNFAMTWVRQAPGKGLEWVSTIGSGDTYYADSVKGRFTISRDNSKNTLYLQMNSLRAEDTAVYYCAKDSTVSWSGDFFDYWGQGTLVTVSS
VL: EIVLTQSPATLSVSPGERATLSCRASQNVKNDLAWYQQKPGQAPRLLIYAARIRETGIPARFSGSGSGTEFTLTISSLQSEDFAVYYCQQYYDWPPFTFGGGTKVEIK
notes: as for B4
In the case of B7, the results for the Kd in [7], in [8] and in assay [9] were 0.0688 nM, 0.215 nM and 0.118 nM, respectively.

B8: antibody 119 variant wt/mut (VL wt / VH mut) (antibody, human IgG1, V domains shown)
VH: EVQLLESGGGVVQPGGSLRLSCAASGFSFSNFAVTWVRQAPGKGLEWVSTIGSGDTYYADSVKGRFTISRDNSKNTLYLQMNSLRAEDTAVYYCAKDSTVSWSGDFFDYWGQGTLVTVSS
VL: EIVLTQSPATLSVSPGERATFSCRASQNVKNDLAWYQQRPGQAPRLLIYAARIRETGIPERFSGSGSGTEFTLTITSLQSEDFAVYYCQQYYDWPPFTFGGGTKVEIK
notes: as for B4
Take B8: the Kd in assay [7] turned out to be 0.0694 nM; in assay [8] it was 0.254 nM; in assay [9] it was 0.155 nM.
